# Experimental data taken from patent US20100151566A1 (published 2010).
# T1: Isoform 120 of mouse VEGF-A (R&D) (mouse, UniProt Q00731-3 27-146)
# T1 construct: also called isoform 120 of murine VEGF
# T1 sequence (looked up): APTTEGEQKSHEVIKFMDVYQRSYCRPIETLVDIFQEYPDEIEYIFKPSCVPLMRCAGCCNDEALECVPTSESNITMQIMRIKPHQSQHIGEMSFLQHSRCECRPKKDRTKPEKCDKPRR
# B1: peptide CCRTLMLLQYHR displayed in filamentous phage (peptide)
# peptide: CCRTLMLLQYHR
# notes: Tested as phage; also called peptide phage clones
# B2: scFv 2H1 (scFv)
# scFv: QQVQLVQSGAEVKKPGESLKISCKGSGYSFTSYWIGWVRQMPGKGLEWMGIIYPGDSDTRYSPSFQGQVTISADKSISTAYLQWSSLKASDTAMYYCARLVVRDTEIWGQGTMVTVSSAPQAKSSGSGSESKVDQAVVTQEPSLTVSPGGTVTLTCASSIGAVTSGNYPNWFQQRPGQPPRALIYSTSNKHSWTPARFSGSLLGGKAALTLSGAQPEDEAEYYCLLSYSGARPVFGGGTKLTVLGAAAGSEQKLISEEDLNSHHHHHH
# notes: Made in E. coli from pACR.1-scFv 2H1, purified by IMAC; also called scFv 2H1 fragment; bacterial scFv 2H1
# B3: Fab 2H1-32 (Fab, V domains shown)
# VH: QVQLVQSGAEVKKPGESLKISCKGSGYSFTSYWIGWVRQMPGKGLEWMGIIYPGDSDTRYSPSFQGQVTISADKSISTAYLQWSSLKASDTAMYYCARLVVRDTEIWGQGTMVTVSS
# VL: QAVVTQEPSLTVSPGGTVTLTCASSIGAVTSGNYPNWFQQRPGQPPRALIYSTSNKHSWTPARFSGSLLGGKAALTLSGAQPEDEAEYYCLLSYSGARPVFGGGTKLTVLG
# notes: Made in E. coli, purified by IMAC, purity close to 85%; also called Fab fragment 2H1-32; Fab produced in E. coli
# B4: phage clone 2H1-F (scFv)
# scFv: QQVQLVQSGAEVKKPGESLKISCKGSGYSFTSYWIGWVRQMPGKGLEWMGIIYPGDSDTRYSPSFQGQVTISADKSISTAYLQWSSLKASDTAMYYCARLVVRDTEIWGQGTMVTVSSAPQAKSSGSGSESKVDQAVVTQEPSLTVSPGGTVTLTCASSIGAVTSGNYPNWFQQRPGQPPRALIYSTSNKHSWTPARFSGSLLGGKAALTLSGAQPEDEAEYYCLLSYSGARPVFGGGTKLTVLG
# modifications: Displayed on filamentous phage, fused to a coat protein that the letters do not carry.
# notes: Tested as phage; also called scFv 2H1-F; original phage scFv (2H1-F); not shown: phage coat protein of the phagemid display format, with any tag or junction residues before it
# Experiments:
# [1] = target: B2; assay: phage ELISA on coated scFv 2H1
# [2] = target: T1, Isoform 120 of mouse VEGF-A (R&D); assay: ELISA on coated antigen (Table 6)
# [3] = target: T1, Isoform 120 of mouse VEGF-A (R&D); assay: ELISA on coated antigen (Table 7)
# Protocol: The purified Fab fragment was evaluated for its capacity of recognizing human VEGF using an ELISA assay. […] The purified Fab fragment was diluted and incubated for 1 h at 22° C.
# [4] = target: T1, Isoform 120 of mouse VEGF-A (R&D); assay: phage ELISA; + means OD at least 5 times the negative control
# Protocol: The latter was immobilized in a 96-well Maxisorp (Nunc) immunoplate at a concentration of 1 μg/ml in PBS, during 16 h at 4° C. The plate was blocked at 22° C. with PBS-milk 4% during 1 h.
# After blocking the plates, the phages purified as described above and diluted in PBS-skimmed milk 4% were added and incubated for 1 h at 22° C. After several washes, the bound phages were detected with anti-M13 peroxidase conjugated antibodies. […] As negative control, a sample of the mixture of phages of the unselected library was used, precipitated as described above.
binder,measurement,setting,value
B1,binding result,[1],binds
B2,binding result,[2],no binding (tested: 20 µg/mL)
B3,binding result,[3],no binding (tested: 20 µg/mL)
B4,binding result,[4],no binding
